Measured values as given in the DeepSol protein solubility set.

Assay: soluble on expression in E. coli; label from the status in PepcDB or PDB records

Sequence	soluble on expression in E. coli
MIQGVIQKIAGPAVIAKGMLGARMYDICKVGEEGLVGEIIRLDGDTAFVQVYEDTSGLKVGEPVVSTGLPLAVELGPGMLNGIYDGIQRPLERIREKTGIYITRGVVVHALDREKKWAWTPMVKPGDEVRGGMVLGTVPEFGFTHKILVPPDVRGRVKEVKPAGEYTVEKPVVVLEDGTNLKMYHTWPVRRPRPVQRKLDPNTPFLTGMRILDVLFPVAMGGTAAIPGPFGSGKTVTQQSLAKWSNADVVVYVACGDRGNEMTDVLVEFPELTDPKTGGPLMRRTVLIANTSNMPVAAREASIYVGVTIAEYFRDQGFSVALMADSTSRWAEALREISSRLEEMPAEEGYPPYLAARLAAFYERAGKVITLGGEEGAVTIVGAVSPPGGDMSEPVTQSTLRIVGAFWRLDASLAFRRHFPAINWNGSYSLFTSALDPWYRENVAEDYPELRDAISELLQREAGLQEIVQLVGPDALQDAERLVIEVGRIIREDFLQQNAYHEVDAYCSMKKAYGIMKMILAFYKEAEAAIKRGVSIDEILQLPVLERIGRARYVSEEEFPAYFEEAMKEIQGAFKALA	soluble
MIQQAQFNVQMAEEDRWLTQYPNMEMIVNNKGPKPIFPELNFNITGLEEKSRYVVLLSIQKFDNIRYGFKNGKWGPSKVRHATKKEQEIKYFLHPDGTKLGEELMKETIKFDTVRITNHKKFMDKDNVFFVETMHKYVPVLTVKNITNVESANHSMRMEVAQFFPVTVYNQESIGNWKSKFHKNATFENRLDGGNKRKNTNSREEPSSKRSKNETEIAVLDILQVASQSENYNESTNSGRLQNEISSSIHQFPSTSYQNQYPHAYPTVNTPPIYAQQFPAPFDEKQNQFYPKTDENLAPNCAQDASSLPNFAMNQKASFANQYPYHPYYHQYSQLDHGSPYQYMNNSINSDSSFQSSFSTENSYFDDNGNPIHYPYYPYK	not soluble
MIRIAYVSTYPPRRCGLATFTEHLRQSIDGVRGPSDGDRVIVLYNESDGDDAYRNDPAYWPLPAQNRAAYAEMAKRVNESDIDVVLLQHEFGIFGGEAGEYILDFIAALNKPLVTTFHTVFADPPLPYRPIQGKIAAASDAIIVMNRQAIPYLVKAFGLPEEKIVYIPHGAPGPSSENRDSLRRRLGFSGRKVMLTFGLLSRGKGIESVLAALPGVVRKVPEALYVIAGQTHPEVKKREGEAYREELKSLIHRLGLEHHVHMEDRYFSEEELIDYLTACDLYVTPYPGMQQITSGTLAYAVGVGRPVVSTPYEHARDLLRGCEELLLPYGDTTAWEERLGQLLADEAALKRWEEKVRQIGANTHWPRVGEQHVALFARMCAAKRGEVKTIGTVSH	not soluble
MIRIENLTKKFDRKVLDNITISLPKNRVSVIVGINGSGKTTLLDCIVGLKDATSGKVFIESYSNDSEKFKECIFYIPSEFYLPNYMTGKEYLNFVLSRYRCSDIERIDDFLELFDLKFAGTNLIESYSFGMKKKIQIVAAALANTDYILGDEIFNGLDFETTLLTLELFENLSREVGIVIISHNKLIIERFSENILLMSNGNLTPFLGASENLEKEVISTEKIHEKIKYIKGYHPINRVIY	not soluble
MIRLAPLITADVDTTTLPGGKASDAAQDFLTLLSEALAGETTTDKAAPQLLVATDKPTTKGEPLVSDILADAQQADLLIPVDETLPVINDEQSTSTPLTTAQTMTLAAVADKNTTKDEKADDLNEDVTASLSALFAMLPGFDNTPKVTDAPSTVLPAEKPTLFTKLTSAQLTTAQPDDAPGTPAQPLTPLVAEAQSKAEVISTPSPVTADASPLITPHQTQPLPTVAAPVLSAPLGSHEWQQSLSQHISLFTRQGQQSAELRLHPQDLGEVQISLKVDDNQAQIQMISPHQHVRAALEAALPVLRTQLAESGIQLGQSNISGESFSGQQQAASQQQQSQRTANHEPLAGEDDDTLPVPVSLQGRVTGNSGVDIFA	not soluble
MIRSMTGFGRGRAQADGREFLVEIKTVNHRYCDIYIKLPRQISFLEDKVREVIGKSISRGKVDVFINYEDFSEDSKNILIDEGLAKTYIKSVEYLRDKYGLKDDISVSLIAKFPDILKVEKPEEDEEKIWNLLYEALSHALDSLISMRETEGEGLKNDLLERTDAIEKVVQEISIRAPEVVKEYKCKLENRIKEILEQQVIDENRLAMEVAIFADRCNIDEELVRLESHINQLRQTLNSDSDTPVGRKLDFLIQEMNREINTIGSKANDLSITQNVVEIKSELEKIREQIQNIE	soluble
MISAKEQAKKGQIIYRYILLKIQSFKWPAGTRIFSERQLEIRFASSRSLIRTILNTLLGKDLIRHTKGNAGYFVAKNAGFSFFHKTQDNKLPKWAKLSTLMKNHLREVDRDVFSSIDSGVDFGNFKGLEAKLFDENKKNFLNLSFFGKDDVLQIFSEQNLQEQFFKDFAYNGIVVERKSSLICVDDETKNLLIYDLFYDDNNKFIVAMRSEYLNPRIKIINA	soluble
MISIIIPAFNEERRIGRTLEKISSTLPNAEIVVVFDGHDNTPEVVKKFPVKLLISESRLGKGGAIKRGINESNFQRVLLLDADFPITEEELDKILSTDADLVIPKRKIVGMPLKRKFLHKGFIIITKILFPSLAKFSDFQAGVKLVNREKVLDILDELIINDFLFDVNLIYGFKRRHYKVKEVEINYIHDESDSKISKKLIKVIILMFLSLIKLRVYYSPFRKILYTKTYLKAQDYILRKLRLEHHHHHH	not soluble
MISIIYLFIPILLASAVPTSDVLSTRIKALEQVFIVFYCKPSCRFNETQLNSVTIKSFPKCKEVCGIIFIDSETDLTVEQMKKAFEKMRTLKGGFNIENTSLTSLSVFTADKEKGNFNVVGVGNSAAAMTSTKLLAERLKQKNGVYIRNNSQLNDPSVLYDLYLYRDRGIEACDIRIENNPKLEFSCDGGFLHMYNELIVRGNLKDCGCDGEKVNVSNVKEYSKCKTLDSGLNLVNINATFDYDSFLNVTMIRGSIAIRNTNLQSLSFLQNLQTIEYNSDIASVALNVQDNPEMIRLGLPILTKVIDTVEQTSMIQYSTYNKRQYFNFENLHPDFCVTITEIVALLNLGISTENIEAKLCKDPGPLDASFYCTFESMSKLSDTCMYILGDLLIDHEDEKYVSKLGVLQFLFGTLTIRNTNLTDLNFLDQMTYIGALNGNVTYFPVIQIYSNPNLRNVGLNGIMNIITKGNRTAIIQDNHPDLFKSTPCQLFGAYFSNPAMENRVNLTYIGSNCGERVHITSSQSGRISIGLSFSLFVLFWSFKSN	not soluble
MISNDAIRRNMAVFSMSVVSKLTDLTPRQIRYYETHELIKPERTEGQKRLFSLNDLERLLEIKSLLEKGFNIKGIKQIIYDSQEHLTTDEQEIRKKMIVDATQKPIGETLPINRGDLSRFIK	not soluble
MISNFKSISLTYRKAPLEIRERVALNEAECKSLMLRIKDFTDTAELLILSTCNRTEIYYTSNEDYSNDIIKLLGVEKNITGLIQQKEYFEIYNEQADAVLHLFEVGIGLDSQVVGDMQIVNQVKYAYQWSADLNLAGPFLHRLMHTIFFTNKRVVQETAFRDGAASVSYATVELSEELLSATPNANILIVGLGEIGADVCRNFKANTSFKNITLTNRSPLKSEALAAECGIEHVPFETLWEAVAKADLVISSVAKEEPLFTKEEIQKLSILSHKYFIDLSVPRSVDARAEELPGIIVYDIDHIQNRSNEALENRLNAIPHVRKIILDSIVEFNEWSKEMEVSPTINKLKNALEQIRKEELSRFVKQLSDEEAKKVDEITKSIMQKIIKLPVLQLKAACKRGEAETLIDVLNDLFNLDKQPEQIRD	not soluble
MISPNHLILLFCVNCAFLVASDATPKRSPLGTMRFGKRAIADEMTFEEDGYYPSNVMWKRSTVDSSEPVIRDQRTPLGTMRFGKRSAEPFGTMRFGKRNPENDTPFGTMRFGKRASEDALFGTMRFGKREDGNAPFGTMKFGKREAEEPLGTMRFGKRSADDSAPFGTMRFGKRNPLGTMRFGK	not soluble
MITLEQKLEQYKHTYVQLKGELKWKTSDSRTGMMIAAMYAGSDKLFDLGRFLEISSYIKNQVGMFSYLKSYHRFVVAATLDIHFTDYKEAFRKFLDLYEQLVTGGFSRSIFTYLAAAVLLTEENEQHGAHIQRSMQVYKRMKKDHLFLTSTNDYPLAVLLAGQSEHVETLMDRVERLYQKLATAGLRKGNDLQFLSHILSLKKDVREELLVAKCTNIWNLLKQEKVKVKQMHYPAIGLLALLEDGEKEIHSIRAFIEKLQGDKLFRWHTDTNILIAIQLFVSQKGEESKATNTGLQTMIEVLIQAQQAAMMATIAASSAATSSASSSS	not soluble
MITLREFKEENTAQLTHILNEPEVVKYLSSKIPKPDTLQDAQWWISTGSKFGIVKAIECNGSLIGCIGADRGEFEYQRSAEIGYWIAKDYWRQGVATQAISELIPLIFTTTDIVRLFASVFSENTASMRVLDKCGLKLEAIHKKAIYKDGKFYDNHIFSILKT	not soluble
MITSTTTDYKNFFKHSAHPANAEQYFRELLDKRERRYEDLCRNIISDMNQYGLSVVDDFLGMETGLKILNEVRSMYNAGAFQDGQVVTNQTPDAPAVRGDKIRGDKIKWVGGNEPGCSNVWYLTNQIDSVVYRVNTMKDNGILGNYHIRERTRAMVACYPGSGTHYVMHVDNPQKDGRVITAIYYLNINWDARESGGILRIRPTPGTTVADIEPKFDRLIFFWSDIRNPHEVQPAHRTRYAITVWYFDAKEREEALIRAKLENSKTNNLAAQAQAQQAEPDSTTTPPAAPASSASSLPVSMSTGTGALNANVSSNSCATSSEICT	not soluble
MITVSIAGGSQPEILQLVKKALKEAEQPLQFIVFDTNENLDTENLWKYVHCSDEAAVAQEAVSLVATGQAQILLKGIIQTHTLLKEMLKSEHQLKNKPILSHVAMVELPAGKTFLLTDCAMNIAPTQATLIEIVENAKEVAQKLGLHHPKIALLSAAENFNPKMPSSVLAKEVTAHFNDQQEATVFGPLSLDLATSEEAVAHKRYSGPIMGDADILVVPTIDVGNCLYKSLTLFGHAKVGGTIVGTKVPVVLTSRSDSTESKFHSLRFAMRQVHHHHHH	soluble
MIVDTSVWIAYLSTSESLASRWLADRIAADSTVIVPEVVMMELLIGKTDEDTAALRRRLLQRFAIEPLAPVRDAEDAAAIHRRCRRGGDTVRSLIDCQVAAMALRIGVAVAHRDRDYEAIRTHCGLRTEPLF	not soluble
MIVGEDQLWGRRALEFVDSVERLEAPALISRFESLIASCGFTAYIMAGLPSRNAGLPELTLANGWPRDWFDLYVSENFSAVDPVPRHGATTVHPFVWSDAPYDRDRDPAAHRVMTRAAEFGLVEGYCIPLHYDDGSAAISMAGKDPDLSPAARGAMQLVSIYAHSRLRALSRPKPIRRNRLTPRECEILQWAAQGKTAWEISVILCITERTVKFHLIEAARKLDAANRTAAVAKALTLGLIRL	not soluble
MIVGRDGVGVVEHAEQGPRIAVAVVTMGNRPAEVDALLASVAKQDLPPARIVIVGNGCPLPEFARRLDLPGEVTGIEVDENLGCPGGRNVALAKLREFGDVDVVVELDDDGLLVDADVLRRVRDLYAADPRLGIVGFRIADENGETQRRHVPRVGKSDPLRGGPVTGFLGGGHALSMAMLARTGDWPAEFFFAHEETDLAWRATDAGWTILYAPELLLQHPKTSPARHAIYHRVTARNRVWLARRRLPLPLIPVHLGIWIAVTLVRTRSAGGLRAWFGGFMEGVRTSGGERRPMRWRTVWRLTRLGRPPVILEHHHHHH	not soluble
MIVSFKCVHTRYLFLQGKTRLWPSIKSVAERKLAMLDAATSILDLRSPPGNRLEALDGSRSGQYSVRINAPFRICFVWSINGPEDVEIVDYH	not soluble
